Experimental data: patent US20200157212A1 (Pfizer, published 2020)

T1: Terbium (Tb) labeled-SNAP tagged ROBO2 expressed on HEK293 cells (Homo sapiens (Human), UniProt Q9HCK4 22-1378, terbium label on the SNAP tag)
T1 construct: also called Tb-labeled ROBO2 cells; ROBO2 expressing cells; not shown: SNAP tag
T1 sequence: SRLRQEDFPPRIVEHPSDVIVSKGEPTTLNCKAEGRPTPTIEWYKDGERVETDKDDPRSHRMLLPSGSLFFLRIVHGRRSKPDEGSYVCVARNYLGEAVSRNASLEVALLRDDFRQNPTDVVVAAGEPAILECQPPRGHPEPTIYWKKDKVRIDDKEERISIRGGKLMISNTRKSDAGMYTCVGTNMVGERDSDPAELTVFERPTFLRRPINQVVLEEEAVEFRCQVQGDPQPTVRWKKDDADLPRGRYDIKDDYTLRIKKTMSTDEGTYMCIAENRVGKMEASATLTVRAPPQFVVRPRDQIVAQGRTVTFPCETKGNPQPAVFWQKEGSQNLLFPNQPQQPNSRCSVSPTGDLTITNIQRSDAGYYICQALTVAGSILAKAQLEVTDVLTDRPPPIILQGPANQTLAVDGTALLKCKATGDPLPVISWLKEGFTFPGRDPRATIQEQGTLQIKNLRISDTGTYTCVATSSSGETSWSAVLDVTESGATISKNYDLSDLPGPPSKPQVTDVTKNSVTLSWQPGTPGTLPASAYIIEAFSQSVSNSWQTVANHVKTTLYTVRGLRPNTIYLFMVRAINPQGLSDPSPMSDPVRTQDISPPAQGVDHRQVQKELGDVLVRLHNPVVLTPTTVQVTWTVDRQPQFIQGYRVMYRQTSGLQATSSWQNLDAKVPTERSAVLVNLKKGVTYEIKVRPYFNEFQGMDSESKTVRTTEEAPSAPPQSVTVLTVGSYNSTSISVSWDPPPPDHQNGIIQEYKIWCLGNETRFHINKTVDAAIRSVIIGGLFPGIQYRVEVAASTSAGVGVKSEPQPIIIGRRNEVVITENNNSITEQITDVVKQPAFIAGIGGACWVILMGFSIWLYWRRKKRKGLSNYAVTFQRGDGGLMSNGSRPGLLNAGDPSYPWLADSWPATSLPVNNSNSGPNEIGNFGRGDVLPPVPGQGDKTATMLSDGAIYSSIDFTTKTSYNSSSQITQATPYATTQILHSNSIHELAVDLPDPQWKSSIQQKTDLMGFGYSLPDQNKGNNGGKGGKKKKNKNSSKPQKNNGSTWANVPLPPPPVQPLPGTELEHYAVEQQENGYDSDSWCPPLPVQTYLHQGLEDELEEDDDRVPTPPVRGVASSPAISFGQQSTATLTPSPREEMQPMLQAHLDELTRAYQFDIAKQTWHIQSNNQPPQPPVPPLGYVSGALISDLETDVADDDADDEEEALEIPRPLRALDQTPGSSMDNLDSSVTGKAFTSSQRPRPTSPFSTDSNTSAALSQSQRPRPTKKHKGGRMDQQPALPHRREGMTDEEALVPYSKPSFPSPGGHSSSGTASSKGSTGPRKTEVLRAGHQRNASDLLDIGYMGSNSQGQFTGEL


Tests used:
[1] = molecular target: T1, Terbium (Tb) labeled-SNAP tagged ROBO2 …; assay: HTRF competition, competitor d2-SLIT2-N, ROBO2 HEK293 cells
Description: (§1) Antibodies generated as a result of the affinity maturation campaign were screened by numerous assays for neutralization of SLIT2-N binding, selective binding to ROBO2 over ROBO1, and inhibition of SLIT2-N functional activity (see Table 2). A ROBO2-SLIT2-N homogenous time resolved fluorescence (HTRF) assay was used to identify antibodies that were capable of blocking SLIT2-N binding to ROBO2. In this assay, terbium (Tb) labeled-SNAP tagged ROBO2 expressing HEK293 cells were incubated with 5 nM d2-labeled SLIT-2N in the presence of 1 nM anti-ROBO2 antibodies for 1 hour. After incubation, fluorescence at 665 nm and 620 nm was measured on an Envision multilabel plate reader. […] Maximal signal was defined as the HTRF ratio of Tb-labeled ROBO2 cells with d2-labeled SLIT2-N in the absence of antibody, the minimum signal was defined as the HTRF ratio of Tb-labeled ROBO2 expressing HEK293 cells only. One nanomolar (nM) parental antibody, 93H2, was unable to block the HTRF assay, therefore this concentration was selected to identify clones with a higher affinity than 93H2 (Table 2, HTRF Ratio column). […] Antibodies derived from chain (Abcs series) or CDR shuffling (CTIR-2 series) were evaluated in 11-point, 5-fold dilution series with a top concentration of 1500 nM (Table 2 HTRF IC₅₀).

[2] = molecular target: T1, Terbium (Tb) labeled-SNAP tagged ROBO2 …; assay: HTRF, 5 nM d2-SLIT2-N on Tb-SNAP-ROBO2 HEK293 cells, 1 nM antibody
Description: as §1, with “In” for “Antibodies generated as a result of the affinity maturation campaign were screened by numerous assays for neutralization of SLIT2-N binding, selective binding to ROBO2 over ROBO1, and inhibition of SLIT2-N functional activity (see Table 2). A ROBO2-SLIT2-N homogenous time resolved fluorescence (HTRF) assay was used to identify antibodies that were capable of blocking SLIT2-N binding to ROBO2. In”
HTRF assays were run with 5 nM d2-labeled SLIT2-N and antibodies were added at 1 nM. […] Antibodies derived from chain (Abcs series) or CDR shuffling (CTIR-2 series) were evaluated in 11-point, 5-fold dilution series with a top concentration of 1500 nM, N.T. = not tested; ^cFold selectivity was calculated as Geometric Mean Fluorescent Intensity (Geo MFI) of ROBO2/Geo MFI of ROBO1 binding.

Binder | IC50 [1] [pM] | HTRF Ratio [2]
CTIR2-1 (antibody, human IgG1, kappa, V domains shown, CDR-shuffled IgG) VH: EVQLVQSGAEVKKPGASVKVSCKASGYTFTGYYMHWVRQAPGQGLEWMGWINPRSGATNFPQKFQGRVTMTRDTSITTAYMDLSRLRSDDTAVYYCARESGDDAFDIWGQGTMVTVSS VL: DIVMTQSPSSLSASVGDRVTITCRASQSISSYLNWYQQKPGKAPKLLIYAASSLQYGVPSRFSGSGSGTDFTLTISSLQPEDFATYYCQQSLELGFGGGTKVEIKR | 159 | 4540
CTIR2-3 (antibody, human IgG1, kappa, V domains shown, CDR-shuffled IgG) VH: EVQLVQSGAEVKKPGASVKVSCKASGYTFTGYYMHWVRQAPGQGLEWMGWINPRSGATNFPQKFQGRVTMTRDTSITTAYMDLSRLRSDDTAVYYCARESGDDAFDIWGQGTMVTVSS VL: DIVMTQSPSSLSASVGDRVTITCRASQSISSYLNWYQQKPGKAPKLLIYAASSLQYGVPSRFSGSGSGTDFTLTISSLQPEDFATYYCQQSVGLFFGGGTKVEIKR | 154 | 4050
CTIR2-4 (antibody, human IgG1, kappa, V domains shown, CDR-shuffled IgG) VH: EVQLVQSGAEVKKPGASVKVSCKASGYTFTGYYMHWVRQAPGQGLEWMGWINPKSGATNFPQKFQGRVTMTRDTSITTAYMDLSRLRSDDTAVYYCARESGDDAFDIWGQGTMVTVSS VL: DIVMTQSPSSLSASVGDRVTITCRASQKISSYLNWYQQKPGKAPKLLIYAASSLQYGVPSRFSGSGSGTDFTLTISSLQPEDFATYYCQQSYSTSFGGGTKVEIKR | 380 | 6170
CTIR2-5 (antibody, human IgG1, kappa, V domains shown, CDR-shuffled IgG) VH: EVQLVQSGAEVKKPGASVKVSCKASGYTFTGYYMHWVRQAPGQGLEWMGWINPKSGATNFPQKFQGRVTMTRDTSITTAYMDLSRLRSDDTAVYYCARESGDDAFDIWGQGTMVTVSS VL: DIVMTQSPSSLSASVGDRVTITCRASQKISSYLNWYQQKPGKAPKLLIYAASSLQSGVPSRFSGSGSGTDFTLTISSLQPEDFATYYCQQSLELGFGGGTKVEIKR | 165 | 5180
CTIR2-11 (antibody, human IgG1, kappa, V domains shown, CDR-shuffled IgG) VH: EVQLVQSGAEVKKPGASVKVSCKASGYTFRGYAMHWVRQAPGQGLEWMGWIDPRTGLTKFPQKFQGRVTMTRDTSITTAYMDLSRLRSDDTAVYYCARESGDDAFDIWGQGTMVTVSS VL: not shown | 182 | 4780

The next binders have a lower IC50 [1] than those just listed; values first:

IC50 [1] [pM] | HTRF Ratio [2] | Binder
136 | 3670 | CTIR2-7 (antibody, human IgG1, kappa, V domains shown, CDR-shuffled IgG) VH: EVQLVQSGAEVKKPGASVKVSCKASGYTFTGYYMHWVRQAPGQGLEWMGWINPKSGATNFPQKFQGRVTMTRDTSITTAYMDLSRLRSDDTAVYYCARESGDDAFDIWGQGTMVTVSS VL: DIVMTQSPSSLSASVGDRVTITCRASQKISSYLNWYQQKPGKAPKLLIYAASSLQYGVPSRFSGSGSGTDFTLTISSLQPEDFATYYCQQSLELGFGGGTKVEIKR
109 | 4330 | CTIR2-2 (antibody, human IgG1, kappa, V domains shown, CDR-shuffled IgG) VH: EVQLVQSGAEVKKPGASVKVSCKASGYTFTGYYMHWVRQAPGQGLEWMGWINPRSGATNFPQKFQGRVTMTRDTSITTAYMDLSRLRSDDTAVYYCARESGDDAFDIWGQGTMVTVSS VL: DIVMTQSPSSLSASVGDRVTITCRASQSISSYLNWYQQKPGKAPKLLIYAASSLQYGVPSRFSGSGSGTDFTLTISSLQPEDFATYYCQQSVGLSFGGGTKVEIKR
108 | 3860 | CTIR2-8 (antibody, human IgG1, kappa, V domains shown, CDR-shuffled IgG) VH: EVQLVQSGAEVKKPGASVKVSCKASGYTFTGYYMHWVRQAPGQGLEWMGWINPKSGATNFPQKFQGRVTMTRDTSITTAYMDLSRLRSDDTAVYYCARESGDDAFDIWGQGTMVTVSS VL: DIVMTQSPSSLSASVGDRVTITCRASQKISSYLNWYQQKPGKAPKLLIYAASSLQYGVPSRFSGSGSGTDFTLTISSLQPEDFATYYCQQSVGLSFGGGTKVEIKR
76 | 4580 | CTIR2-12 (antibody, human IgG1, kappa, V domains shown, CDR-shuffled IgG) VH: EVQLVQSGAEVKKPGASVKVSCKASGYTFRGYAMHWVRQAPGQGLEWMGWIDPRTGLTKFPQKFQGRVTMTRDTSITTAYMDLSRLRSDDTAVYYCARESGDDAFDIWGQGTMVTVSS VL: DIVMTQSPSSLSASVGDRVTITCRASQKISSYLNWYQQKPGKAPKLLIYAASSLQSGVPSRFSGSGSGTDFTLTISSLQPEDFATYYCQQSYSTSFGGGTKVEIKR
